According to patent publication US7598032B2, “Thermostable DNA polymerases incorporating nucleoside triphosphates labeled with fluorescent dyes” (Roche Molecular Systems, priority 1997, dated 2009):

B1: G46D F667Y E681K Taq: thermostable Taq DNA polymerase with G46D, F667Y and E681K mutations, encoded by plasmid pLK113 (protein, UniProt P19821 1-832, looked up, variant G46D F667Y E681K)
DNA polymerase I, thermostable: MRGMLPLFEPKGRVLLVDGHHLAYRTFHALKGLTTSRGEPVQAVYDFAKSLLKALKEDGDAVIVVFDAKAPSFRHEAYGGYKAGRAPTPEDFPRQLALIKELVDLLGLARLEVPGYEADDVLASLAKKAEKEGYEVRILTADKDLYQLLSDRIHVLHPEGYLITPAWLWEKYGLRPDQWADYRALTGDESDNLPGVKGIGEKTARKLLEEWGSLEALLKNLDRLKPAIREKILAHMDDLKLSWDLAKVRTDLPLEVDFAKRREPDRERLRAFLERLEFGSLLHEFGLLESPKALEEAPWPPPEGAFVGFVLSRKEPMWADLLALAAARGGRVHRAPEPYKALRDLKEARGLLAKDLSVLALREGLGLPPGDDPMLLAYLLDPSNTTPEGVARRYGGEWTEEAGERAALSERLFANLWGRLEGEERLLWLYREVERPLSAVLAHMEATGVRLDVAYLRALSLEVAEEIARLEAEVFRLAGHPFNLNSRDQLERVLFDELGLPAIGKTEKTGKRSTSAAVLEALREAHPIVEKILQYRELTKLKSTYIDPLPDLIHPRTGRLHTRFNQTATATGRLSSSDPNLQNIPVRTPLGQRIRRAFIAEEGWLLVALDYSQIELRVLAHLSGDENLIRVFQEGRDIHTETASWMFGVPREAVDPLMRRAAKTINYGVLYGMSAHRLSQKLAIPYEEAQAFIERYFQSFPKVRAWIEKTLEEGRRRGYVETLFGRRRYVPDLEARVKSVREAAERMAFNMPVQGTAADLMKLAMVKLFPRLEEMGARMLLQVHDELVLEAPKERAEAVARLAKEVMEGVYPLAVPLEVEVGIGEDWLSAKE

Columns and labels:
Format in all cases: biochemical
[1] = biological target: T1, Thermus aquaticus (Taq) DNA polymerase variant G46D F667Y E681K (Thermus aquaticus, UniProt P19821, E681K/F667Y/G46D); assay: Limiting template primer extension competition assay (ddNTP incorporation), G46D F667Y E681K Taq
T1 construct: Expression vector pRDA3-2 contains the full-length Taq DNA polymerase gene; made in house; host or cells: E. coli DG116 (plasmid pLK113)
Procedure: (§1) The ability of the enzymes of this invention to efficiently incorporate nucleotides labeled with fluorescein family dyes is measured by ddNTP incorporation assays. One such assay is a primer extension competition assay conducted under conditions of limiting template. In this assay, a primer DG48 (5′-[…]), (SEQ ID NO: 11), bound to M13 mp18 template (Innis et al., 1988, Proc. Natl. Acad. Sci. USA 85:9436) is extended in the presence of [α-^33P]dCTP and excess enzyme with various levels of a fluorescently labeled ddNTP, Zowie-ddCTP. Because the incorporation of a ddCTP residue terminates the extension reaction, the more readily a DNA polymerase incorporates a ddCTP into an extended primer, the less [α-^33P]dCTP can be incorporated. Thus, as the efficiency of fluorescently labeled ddCTP incorporation increases, the extent of inhibition of DNA synthesis is increased. The reactions were also performed with various levels of an unlabeled ddCTP. […]
(§2) The relative abilities of G46D F667Y Taq, G46D F667Y E681K Taq and F730Y Tma30 DNA polymerases to incorporate a fluorescein dye family-labeled ddCTP were compared by use of a limiting template, primer extension competition assay. […] In this competition assay, because the incorporation of a ddCTP terminates the extension reaction, the more readily the polymerase incorporates a ddCTP into an extended primer, the less [α-^33P]dCTP can be incorporated. […]

[2] = dye-terminator dideoxy-sequencing using rhodamine-labeled terminators
[3] = system: primer DG48 annealed to M13 mp18 template; assay: limiting template, primer extension competition assay (ddNTP incorporation assay); conditions: ratio of concentrations for 50% inhibition by Zowie-ddCTP vs. ddCTP
Procedure: as §1, §2

| Molecule | IC50 [1] [nM] | peak heights in dye-terminator dideoxy-sequencing [2] | Zowie-ddCTP/ddCTP (ratio of concentrations for 50% inhibition) [3] |
| --- | --- | --- | --- |
| Nc1ccn([C@H]2CC[C@@H](COP(=O)(O)OP(=O)(O)OP(=O)(O)O)O2)c(=O)n1 [ddCTP] | 116 |  |  |
| B1 |  | more uniform peak heights | 1.2 |
